# Results taken from the Immune Epitope Database (IEDB).
# pKd: −log10 of the molar value.
# Legend:
# HLA-B*15:03 = experiment: IEDB peptide-MHC binding, purified MHC/competitive/radioactivity; filed as Kd, often an IC50 or EC50 that approximates it; ≥ and ≤ were set here for values at or beyond the usual limits of such assays; conditions: source organism: Vaccinia virus WR
# HLA-A*03:01 [1] = experiment: IEDB peptide-MHC binding, purified MHC/direct/fluorescence; filed as Kd, often an IC50 or EC50 that approximates it; ≥ and ≤ were set here for values at or beyond the usual limits of such assays
# HLA-B*08:01 [2] = experiment: as above
# HLA-B*58:01 [3] = experiment: as above
# HLA-B*27:05 [4] = experiment: as above
# HLA-A*11:01 = experiment: as above
# HLA-A*26:01 [5] = experiment: as above
# HLA-A*31:01 [6] = experiment: as above
# HLA-A*02:01 [7] = experiment: as above
# HLA-B*07:02 [8] = experiment: as above
# HLA-B*15:01 [9] = experiment: as above
# HLA-B*35:01 [10] = experiment: as above
# HLA-A*01:01 [11] = experiment: as above
# HLA-A*69:01 [12] = experiment: as above
# HLA-B*57:01 = experiment: IEDB peptide-MHC binding, purified MHC/competitive/fluorescence; filed as Kd, often an IC50 or EC50 that approximates it; ≥ and ≤ were set here for values at or beyond the usual limits of such assays; conditions: source organism: Orthohantavirus tulaense
# HLA-B*58:01 [13] = experiment: as above
# HLA-B*27:03 = experiment: as above; conditions: source organism: Orthohantavirus tulaense
# HLA-A*26:01 [14] = experiment: as above; conditions: source organism: Orthohantavirus tulaense
# HLA-A*02:01 [15] = experiment: as above; conditions: source organism: Orthohantavirus tulaense
# HLA-B*35:01 [16] = experiment: as above
# HLA-A*69:01 [17] = experiment: as above; conditions: source organism: Orthohantavirus tulaense
# HLA-B*46:01 = experiment: as above
# HLA-A*02:19 = experiment: IEDB peptide-MHC binding, purified MHC/direct/fluorescence; filed as Kd, often an IC50 or EC50 that approximates it; ≥ and ≤ were set here for values at or beyond the usual limits of such assays; conditions: source organism: Orthohantavirus tulaense
# HLA-A*02:11 = experiment: as above; conditions: source organism: Orthohantavirus tulaense
# HLA-A*02:12 = experiment: as above; conditions: source organism: Orthohantavirus tulaense
# HLA-A*02:03 = experiment: as above; conditions: source organism: Orthohantavirus tulaense
# HLA-A*02:16 = experiment: as above; conditions: source organism: Orthohantavirus tulaense
# HLA-A*68:02 = experiment: as above; conditions: source organism: Orthohantavirus tulaense
# HLA-A*03:01 [18] = experiment: IEDB peptide-MHC binding, purified MHC/competitive/fluorescence; filed as Kd, often an IC50 or EC50 that approximates it; ≥ and ≤ were set here for values at or beyond the usual limits of such assays
# HLA-B*08:01 [19] = experiment: as above; conditions: source organism: Yersinia pestis Nepal516
# HLA-A*31:01 [20] = experiment: as above; conditions: source organism: Yersinia pestis Nepal516
# HLA-B*27:05 [21] = experiment: as above
# HLA-A*32:01 = experiment: IEDB peptide-MHC binding, purified MHC/competitive/radioactivity; filed as Kd, often an IC50 or EC50 that approximates it; ≥ and ≤ were set here for values at or beyond the usual limits of such assays; conditions: source organism: Vaccinia virus WR
# HLA-B*15:01 [22] = experiment: as above; conditions: source organism: Vaccinia virus WR
# HLA-B*07:02 [23] = experiment: IEDB peptide-MHC binding, purified MHC/competitive/fluorescence; filed as Kd, often an IC50 or EC50 that approximates it; ≥ and ≤ were set here for values at or beyond the usual limits of such assays
# HLA-B*51:01 = experiment: as above; conditions: source organism: Yersinia pestis Nepal516
# HLA-B*15:42 = experiment: as above; conditions: source organism: Yersinia pestis Nepal516
# HLA-B*45:06 = experiment: as above; conditions: source organism: Yersinia pestis Nepal516
# HLA-B*83:01 = experiment: as above; conditions: source organism: Yersinia pestis Nepal516
# HLA-B*15:01 [24] = experiment: as above; conditions: source organism: Salmonella enterica subsp. enterica serovar Typhi
# HLA-A*01:01 [25] = experiment: as above; conditions: source organism: Salmonella enterica subsp. enterica serovar Typhi
# HLA-A*30:01 = experiment: IEDB peptide-MHC binding, purified MHC/competitive/radioactivity; filed as Kd, often an IC50 or EC50 that approximates it; ≥ and ≤ were set here for values at or beyond the usual limits of such assays; conditions: source organism: Vaccinia virus WR
# HLA-B*08:01 [26] = experiment: as above; conditions: source organism: Vaccinia virus WR
# HLA-B*44:02 = experiment: IEDB peptide-MHC binding, purified MHC/direct/fluorescence; filed as Kd, often an IC50 or EC50 that approximates it; ≥ and ≤ were set here for values at or beyond the usual limits of such assays; conditions: source organism: Giardia lamblia ATCC 50803
# HLA-B*40:01 = experiment: as above; conditions: source organism: Giardia lamblia ATCC 50803
# [27] = source organism: Vibrio vulnificus
# [28] = source organism: Orthohantavirus tulaense
# [29] = source organism: Yersinia pestis Nepal516
# [30] = source organism: Mycobacterium tuberculosis F11
# [31] = source organism: Salmonella enterica subsp. enterica serovar Typhi
# [32] = source organism: Giardia lamblia ATCC 50803
sequence,measurement,setting,value
AKTSTLIFF,pKd,HLA-B*15:03,8.81
ALVITINYF,pKd,HLA-B*15:03,6.18
EEVWRDPYL,pKd,HLA-A*03:01 [1]; [27],≤ 4.70
same,pKd,HLA-B*08:01 [2]; [27],≤ 4.70
same,pKd,HLA-B*58:01 [3]; [27],≤ 4.70
same,pKd,HLA-B*27:05 [4]; [27],≤ 4.70
same,pKd,HLA-A*11:01; [27],≤ 4.70
same,pKd,HLA-A*26:01 [5]; [27],≤ 4.70
same,pKd,HLA-A*31:01 [6]; [27],≤ 4.70
same,pKd,HLA-A*02:01 [7]; [27],≤ 4.70
same,pKd,HLA-B*07:02 [8]; [27],≤ 4.70
same,pKd,HLA-B*15:01 [9]; [27],≤ 4.70
same,pKd,HLA-B*35:01 [10]; [27],7.62
same,pKd,HLA-A*01:01 [11]; [27],≤ 4.70
same,pKd,HLA-A*69:01 [12]; [27],≤ 4.70
FAAVEGIFF,pKd,HLA-B*15:03,6.51
FGAAVSLLF,pKd,HLA-B*57:01,≤ 4.70
same,pKd,HLA-B*58:01 [13]; [28],8.89
same,pKd,HLA-B*27:03,≤ 4.70
same,pKd,HLA-A*26:01 [14],≤ 4.70
same,pKd,HLA-A*02:01 [15],≤ 4.70
same,pKd,HLA-B*35:01 [16]; [28],8.57
same,pKd,HLA-A*69:01 [17],≤ 4.70
same,pKd,HLA-B*46:01; [28],≤ 4.70
same,pKd,HLA-A*03:01 [1]; [28],≤ 4.70
same,pKd,HLA-A*02:19,≤ 4.70
same,pKd,HLA-A*02:11,≤ 4.70
same,pKd,HLA-A*02:12,≤ 4.70
same,pKd,HLA-A*02:03,≤ 4.70
same,pKd,HLA-A*02:16,≤ 4.70
same,pKd,HLA-B*15:01 [9]; source organism: Orthohantavirus andesense,7.27
same,pKd,HLA-A*68:02,≤ 4.70
FIRLRFAFK,pKd,HLA-A*03:01 [18]; [29],≤ 4.70
same,pKd,HLA-B*08:01 [19],≤ 4.70
same,pKd,HLA-A*31:01 [20],7.76
FSIPVTFSY,pKd,HLA-B*58:01 [13]; [30],9.15
same,pKd,HLA-B*35:01 [16]; [30],≥ 10.00
same,pKd,HLA-B*46:01; [30],7.16
same,pKd,HLA-A*01:01 [11]; source organism: Mycobacterium tuberculosis,6.50
GRVTVSTKR,pKd,HLA-B*27:05 [21]; source organism: Influenza A virus,6.26
ILAPNPNRF,pKd,HLA-B*15:03,7.58
ILVNQYSHM,pKd,HLA-B*15:03,7.43
KIYNVTNPF,pKd,HLA-A*32:01,8.37
same,pKd,HLA-B*15:01 [22],8.57
same,pKd,HLA-B*15:03,8.12
LPACVYGLAV,pKd,HLA-B*07:02 [23]; source organism: Influenza A virus (A/parakeet/Narita/92A/98(H9N2)),7.40
MPAIFFSIV,pKd,HLA-B*51:01,5.88
same,pKd,HLA-B*07:02 [23]; [29],7.08
same,pKd,HLA-B*15:42,≤ 5.30
same,pKd,HLA-B*35:01 [16]; [29],8.92
same,pKd,HLA-B*45:06,≤ 5.30
same,pKd,HLA-B*83:01,6.19
MTAAQIRRY,pKd,HLA-A*03:01 [18]; [31],5.46
same,pKd,HLA-B*58:01 [13]; [31],≤ 4.70
same,pKd,HLA-B*15:01 [24],6.78
same,pKd,HLA-A*01:01 [25],6.61
TSNWTGNYF,pKd,HLA-A*30:01,5.64
same,pKd,HLA-B*08:01 [26],4.81
same,pKd,HLA-A*32:01,4.94
same,pKd,HLA-B*15:01 [22],5.11
same,pKd,HLA-B*15:03,6.05
YQNHGFVSF,pKd,HLA-A*32:01,6.45
same,pKd,HLA-B*15:01 [22],9.76
same,pKd,HLA-B*15:03,8.61
YQYGDNLIL,pKd,HLA-A*03:01 [1]; [32],≤ 4.70
same,pKd,HLA-B*08:01 [2]; [32],≤ 4.70
same,pKd,HLA-B*58:01 [3]; [32],≤ 4.70
same,pKd,HLA-B*27:05 [4]; [32],6.37
same,pKd,HLA-A*11:01; [32],≤ 4.70
same,pKd,HLA-A*26:01 [5]; [32],≤ 4.70
same,pKd,HLA-A*31:01 [6]; [32],≤ 4.70
same,pKd,HLA-A*02:01 [7]; [32],7.66
same,pKd,HLA-B*07:02 [8]; [32],≤ 4.70
same,pKd,HLA-B*15:01 [9]; [32],7.05
same,pKd,HLA-B*35:01 [10]; [32],6.39
same,pKd,HLA-A*01:01 [11]; [32],≤ 4.70
same,pKd,HLA-A*69:01 [12]; [32],≤ 4.70
same,pKd,HLA-B*44:02,≤ 4.70
same,pKd,HLA-B*40:01,7.11
YRLFKHGLK,pKd,HLA-B*27:05 [21]; source organism: Influenza A virus (A/Memphis/1/1978(H1N1)),6.66
